Values of other authors in publication PMC3076547.

Molecular target: Nef (Human immunodeficiency virus 1) (UniProt P04324)

Hck SH3 (from UniProt P08631)
Kd: 250 nM
